“Also recorded” adds a separate entry of the source.
How the values were obtained:
[1] = system: A549 xenograft tumors; assay: Enhancement of irinotecan therapy in A549 xenograft tumors; type: in vivo, CB17-SCID/beige mice; conditions: 2 mg/kg i.v. one hour before irinotecan 37.5 mg/kg i.v.; days 15 and 25; N=5
Description: FIG. 5. Correlation of reduced DSG2 binding with the ability to open epithelial junctions. A) Transepithelial electrical resistance (TEER) measured on polarized colon cancer T84 cells. Cells were cultured in transwell chambers until the TEER was constant, i.e. tight junctions had formed. A total of 5 μg of dimeric Ad3 fiber knobs in PBS was then added for 1 hour to the apical chamber. TEER was measured at the indicated time points. N=6. For time points 1.5 and 4 hours the difference between JO-1 vs D261N and N186D was significant (p<0.01). The arrows indicate the addition and removal of Ad3 fiber knobs. B) Enhancement of irinotecan therapy. A total of 4×10^6 A549 cells were injected subcutaneously into CB17-SCID/beige mice. Once the tumor reached a volume of ˜100 mm^3 (day 15 after implantation), the mice were injected intravenously with 2 mg/kg JO-1, E299V, N186D, or PBS, followed by an intravenous injection of irinotecan (37.5 mg/kg) one hour later. The treatment was repeated on day 25. N=5. […] The difference between “irinotecan” vs “JO-1+irinotecan” was significant (p<0.01) from day 20 on.
(§1) FIG. 10. Combination of affinity-enhanced JO-1 versions with chemotherapy. A) Enhancement of irinotecan (I) therapy. The experimental setting was the same as in FIG. 5B. […] N=5. […] Mammary fat pad tumors were established from primary ovarian cancer ovc316 cells. Treatment was started when tumors reached a volume of 100 mm^3 Mice were injected intravenously with 2 mg/kg JO-1 or with 0.5 mg/kg JO-4, followed by an intravenous injection of PEGylated liposomal doxorubicin (PLD) (1 mg/kg) one hour later. Treatment was repeated weekly. […] A total of 4×10^6 TNBC MDA-MB-231 cells were injected into the mammary fat pad of CB17 SCID-beige mice. JO-4 (2 mg/kg) was intravenously injected 1 hour before the application of cetuximab (C) (10 mg/kg, i.p.) and nab-paclitaxel (nab-P) (5 mg/kg, i.v). Treatment was given weekly. N=10 P<0.01 at day 25 for nab-P+C vs JO-4+nab-P+C.
A549, MDA-MB-231, and ovc316 xenograft tumors were established by injection of the corresponding tumor cells into the mammary fat pad (1:1 with Matrigel) of CB17 mice. TC1-DSG2 tumors were established by subcutaneous injection of TC1-DSG2 cells into DSG2 transgenic mice. JO-0, JO-1, JO-2, or JO-4 were intravenously injected one hour before the application of chemotherapeutic drugs: Irinotecan/Camptosar™ (Pfizer Inc., Groton, Conn.), PEGylated liposomal doxorubicin/Lipodox™ (Sun Pharmaceuticals IN, India), cetuximab/Erbitux™ (ImClone, Somerville, N.J.), nanoparticle albumin conjugated paclitaxel/Abraxane™ (Abraxis Biosciences, Summit N.J.). Tumor volumes were measured three times a week. Each treatment group consisted of a minimum of 5 mice.

[2] = system: ovc316 xenograft tumors; assay: Enhancement of PLD therapy in ovc316 ovarian cancer xenograft model; type: in vivo, CB17 mice; conditions: weekly
Description: as §1
A549, MDA-MB-231, and ovc316 xenograft tumors were established by injection of the corresponding tumor cells into the mammary fat pad (1:1 with Matrigel) of CB17 mice. TC1-DSG2 tumors were established by subcutaneous injection of TC1-DSG2 cells into DSG2 transgenic mice. […] Tumor volumes were measured three times a week. […]

[3] = system: TC1-hDSG2 tumors; assay: Repeated-cycle PLD therapy study in immunocompetent mice with TC1-hDSG2 tumors; type: in vivo, hDSG2 transgenic mice; conditions: 2 mg/kg i.v. one hour before PLD/Doxil 1.5 mg/kg i.v.; 3rd and 4th cycles days 28 and 35; N=10
Description: FIG. 11. Pharmacokinetics, toxicity, and immunogenicity of JO-4. A) Serum clearance of JO-1 and JO-4. hDSG2 transgenic mice with subcutaneous TC1-hDSG2 tumors (˜600 mm^3) were intravenously injected with JO-1 or JO-4 (2 mg/kg) and serum samples were analyzed for by ELISA. N=3. Note that the y-axis has a log scale. B) Lymphocyte and platelet counts in hDSG2/TC1-hDSG2 transgenic mice after JO-1 or JO-4 injection. N=3. C) Therapy studies in immunocompetent hDSG2 transgenic mice with TC1-hDSG2 tumors. When tumors reached a volume of ˜80 mm^3, JO-1 or JO-4 (2 mg/kg) or PBS was injected intravenously followed one hour later by PLD/Doxil (i.v. 1.5 mg/kg). Treatment was repeated as indicated by arrows. Tumors were then allowed to re-grow for about two weeks. From day 15 on serum anti-JO-1/J)-4 antibodies were detectable by ELISA. Two more treatment cycles were performed at day 28 and day 35. […] The difference between JO-1/PLD vs JO-4/PLD is significant from day 31 on. N=10.
A549, MDA-MB-231, and ovc316 xenograft tumors were established by injection of the corresponding tumor cells into the mammary fat pad (1:1 with Matrigel) of CB17 mice. […] Tumor volumes were measured three times a week. […]
JO-1 and JO-4 are virus-derived proteins and immunogenic. In immunocompetent mice, serum IgG antibodies against these proteins can be detected by ELISA two weeks after injection (5). […]

| Molecule | Enhancement of irinotecan therapy [1] | Enhancement of PLD therapy ([2]; 2 mg/kg i.v. one hour before PLD 1 mg/kg i.v.) | Enhancing effect on PLD therapy over repeated treatment cycles [3] | Enhancement of PLD therapy ([2]; 0.5 mg/kg i.v. one hour before PLD 1 mg/kg i.v.) |
| --- | --- | --- | --- | --- |
| JO-1: recombinant protein with the Ad3 fiber knob and a domain for self-dimerization of trimeric knobs (SEQ ID NO:27) (protein) MKVSALKEKVSALKEKVSALKEKVSALKEKVSALKEGSGGGSGGGSGGGSNSIALKNNTLWTGPKPEANCIIEYGKQNPDSKLTLILVKNGGIVNGYVTLMGASDYVNTLFKNKNVSINVELYFDATGHILPDSSSLKTDLELKYKQTADFSARGFMPSTTAYPFVLPNAGTHNENYIFGQCYYKASDGALFPLEVTVMLNKRLPDSRTSYVMTFLWSLNAGLAPETTQATLITSPFTFSYIREDD | enhanced irinotecan therapy; also recorded: significant | significantly increased the treatment efficiency | enhancing effect on PLD therapy; also recorded: continued to be effective after multiple treatment cycles |  |
| JO-4 (protein) MKVSALKEKVSALKEKVSALKEKVSALKEKVSALKEGSGGGSGGGSGGGSNSIALKNNTLWTGPKPEANCIIEYGKQNPDSKLTLILVKNGGIVNGYVTLMGASDYVNTLFKNKNVSINVELYFDATGHILPDSSSLKTDLELKYKQTADFSARGFMPSTTAYPFVLPNAGTHNENFIFGQCYYKASDGALFPLEVTVMLNKRLPDSRTSYVMTFLWSLNAGLAPETTQATLITSPFTFSYIREDD | increased irinotecan therapy significantly more than JO-1; also recorded: significantly more efficient than JO-2; also recorded: significant from day 20 on |  | enhancing effect on PLD therapy; also recorded: significantly stronger; also recorded: continued to be effective after multiple treatment cycles | even greater stimulating effect on PLD therapy; also recorded: enhances PLD therapy in an ovarian cancer model at lower dose than JO-1 |

— patent US20150246949A1, “Desmoglein 2 (DSG2) Binding Proteins and Uses Therefor” (UNIVERSITY OF WASHINGTON THROUGH ITS CENTER FOR …, priority 2012, published 2015)
